From patent US20190127480A1 (Regeneron, published 2019)
Substitutions are numbered along the chain they refer to.

T1: soluble heterodimeric hCD3ε/δ.mFc protein (human)
T1 construct: also called soluble human CD3; soluble heterodimeric CD3 protein
T1 chain 1: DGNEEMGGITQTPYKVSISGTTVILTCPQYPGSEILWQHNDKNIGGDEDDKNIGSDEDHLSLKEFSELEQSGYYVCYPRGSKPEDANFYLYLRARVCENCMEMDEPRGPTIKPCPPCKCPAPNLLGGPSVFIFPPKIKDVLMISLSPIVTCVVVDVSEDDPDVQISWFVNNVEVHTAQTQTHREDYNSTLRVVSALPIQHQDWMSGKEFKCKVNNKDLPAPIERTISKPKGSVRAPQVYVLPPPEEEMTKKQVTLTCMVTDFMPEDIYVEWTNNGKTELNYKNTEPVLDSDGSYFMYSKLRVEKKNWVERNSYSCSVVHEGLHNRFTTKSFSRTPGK
T1 chain 2: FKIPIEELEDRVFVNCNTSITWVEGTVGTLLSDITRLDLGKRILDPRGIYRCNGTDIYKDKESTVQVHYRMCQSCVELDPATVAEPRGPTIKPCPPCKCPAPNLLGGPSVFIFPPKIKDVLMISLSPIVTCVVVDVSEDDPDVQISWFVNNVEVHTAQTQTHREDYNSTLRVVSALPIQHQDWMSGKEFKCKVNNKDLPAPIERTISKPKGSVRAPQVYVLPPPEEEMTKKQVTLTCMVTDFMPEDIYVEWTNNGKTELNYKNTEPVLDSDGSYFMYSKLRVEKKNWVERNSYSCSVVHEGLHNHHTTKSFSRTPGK

B1: BSPSMA/CD3-900 (bispecific antibody, IgG4, V domains shown)
VH 1: QVQLVESGGGVVQPGRSLRLSCAASGFTFSSYGMHWVRQAPGKGLEWVAVISYAGNNKYYADSVKGRFTVSRDNSKKTLYLQMNSLRSEDTAVYYCAKDSYYDFLTDPDVLDIWGQGTMVTVSS
VH 2: EVQLVESGGGLVQPGRSLRLSCAASGFTFDDYSMHWVRQAPGKGLEWVSGISWNSGSKGYADSVKGRFTISRDNAKNSLYLQMNSLRAEDTALYYCAKDGSGYGKFYHYGLDVWGQGTTVTVSS
VL: DIQMTQSPSSLSASVGDSVTITCRASQSINNYLNWYQQKPGKAPKLLIYTASSLLSGVPSRFSGSGSGTDFTLTISGLHPEDFATYFCQQSFSTPPITFGQGTRLDIK
notes: modified (chimeric) IgG4 Fc domain; also called PSMA-VH-11810 x CD3-VH-G9
B2: BSPSMA/CD3-2100 (bispecific antibody, IgG4, V domains shown)
VH 1: B1 VH 1
VH 2: B1 VH 2 with H108Y, L111M
VL: B1 VL
notes: modified (chimeric) IgG4 Fc domain; also called PSMA-VH-11810 x CD3-VH-G21
B3: BSPSMA/CD3-1900 (bispecific antibody, IgG4, V domains shown)
VH 1: B1 VH 1
VH 2: B1 VH 2 with K58I, L111M
VL: B1 VL
notes: modified (chimeric) IgG4 Fc domain; also called PSMA-VH-11810 x CD3-VH-G19
B4: H1H5778P (antibody, human IgG1, V domains shown)
VH: EVQLVESGGGLVQPGRSLRLSCVASGFTFADFTMHWVRQAPGKGLEWVSGISWNSNSIDYADSVKGRFTISRDNAKKSLFLQMSSLRAEDTALYYCVKDRSGYSRFYYGMDVWGQGTTVTVSS
VL: EIVMTQSPATLSVSPGERAILSCRASQNINSNLAWYQQKPGQAPRLLIYGASTRATGVPARFSGSGSGTEFTLTIRSLQSEDFAVYYCQQYYNWPITFGHGTRLEIK
notes: H1H: human IgG1 Fc
B5: H1H5788P (antibody, V domains shown)
VH: EVQLVESGGGLVQPGRSLRLSCAASGFTFDDYTMHWVRQAPGKGLEWVSGISWNSGSIGYADSVKGRFTISRDNAKNSLYLQMNSLRAEDTALFYCAKDQSGYGHYYYGMDVWGQGTTVTVSS
VL: EIVMTQSPATLSVSPGERATLSCRASQSVSSNLAWYQQKPGQAPRLLIYGASTRATDIPARFSGSGSGTEFTLTISSLQSEDFAVYHCQQYNNWPLTFGGGTKVEIK
notes: H1H: human IgG1 Fc
B6: H1H5769P (antibody, human IgG1, V domains shown)
VH: EVQLVESGGGLVQPGRSLRLSCAASGFTFDDYTMHWVRQVPGKGLEWISGISWNSGSMDYADSVKGRFTISRDNARNSLFLQMNSVRTEDTALYYCAKDKSGYGSFYYGMDVWGQGTTVTVSS
VL: EIVLTQSPGTLSLSPGDRATLSCRASQSVSSIYLAWYQQKPGQAPRLLIHGASTRATGIPDRFSGSGSGTDFTLTISRLEPEDFAVYYCQQRAHSPYTFGQGTKLEIK
B7: H1H5771P (antibody, human IgG1, V domains shown)
VH: EVQLVESGGGLVQPGRSLRLSCAASGFSFDNYAMHWVRQAPGQGLEWVSGISWNSGSRDYADSVKGRFTISRDNARNSLFLQMNSLSNEDTAMYYCAKDKSGYGSYFYGMDVWGQGTTVTVSS
VL: B6 VL with V29I, S30R, S31N, A93V, H94S, S95L
B8: H1H5781P (antibody, human IgG1, V domains shown)
VH: EVQLVESGGGLVQPGRSLRLSCAASGFTFDDFTMHWVRQAPGKGLEWVSDISWNSGSIDYADSVKGRFTISRDNARNSLFLQMSSLRTEDTASYYCIKDKSGYGSYNYGLDVWGQGTTVTVSS
VL: B6 VL with V86L, Q90H, A93V, H94S
notes: H1H: human IgG1 Fc
B9: H1H5772S (antibody, human IgG1, V domains shown)
VH: B7 VH with E1Q, N31D, S55G, S87F, N88T, M93L
VL: B6 VL with T10I, V29I, S30R, S31N, A93V, H94S
notes: H1H: human IgG1 Fc; also called H1H5772P
B10: H1H5780P (antibody, human IgG1, V domains shown)
VH: B6 VH with T33A, V40A, I48V, S55G, M58K, A75T, F80S, V86L, T88I, M110L
VL: B6 VL with V29I, S30R, A93V, H94S
notes: H1H: human IgG1 Fc
B11: H1H5761P (antibody, human IgG1, V domains shown)
VH: QVQLVESGGGVVQPGRSLRLSCAASGFTFSSYGMHWVRQAPGKGLEWVAVISYDGSNKYYADSVKGRFTISRDYSKNTLYLQMNSLRAEDTAVFYCAKGAMVRGVPYNYYYGMDVWGQGTTVTVSS
VL: DIQMTQSPSSLSASVGDRVTITCRASQGIRNDLGWFQQKPGKAPKRLIYAASSLQSGVPSRFSGSGSGTEFTLTISSLQPEDFATYYCLQHNSYPYTFGQGTKLEIK
B12: H1H5764P (antibody, human IgG1, V domains shown)
VH: B11 VH with S30R, Y32F, S56N, N57Y, Y74N, F94H, Y109F
VL: B11 VL with G28V, F36Y, V58I
notes: H1H: human IgG1 Fc

Key:
[1] = target: T2, human CD3 on CD3-expressing cells (Jurkat, human T cells) (human, UniProt P07766 23-207; P04234 22-171); assay: FACS on Jurkat cells
T2 construct: On cells CD3 stands within the T cell receptor complex (also gamma and zeta chains); also called human CD3 expressing Jurkat cells
Description: (§1) Briefly, 2×10⁵ cells/well of human CD3-expressing Jurkat, cynomolgus T, or human PSMA-specific expressing cells were incubated with a serial dilution of bispecific antibodies for 30 min at 4° C. After incubation, cells were washed and a goat F(ab′)₂ anti-human Fcγ PE labeled secondary (Jackson Immunolabs) was added to the cells for an additional 30 min. Next, cells were washed, re-suspended in cold PBS+1% BSA and analyzed via flow cytometry on a BD FACS Canto II.
(§2) For FACS analysis, cells were gated by forward scatter height vs. forward scatter area for single events selection, followed by side and forward scatters. The EC₅₀ for cell binding titration was determined using Prism software. Values were calculated using 4-parameter non-linear regression analysis.

[2] = target: T1, soluble heterodimeric hCD3ε/δ.mFc …; assay: SPR MASS-1, 37 C, antigen-capture (hCD3ε/δ.mFc captured), antibody injected
Description: Measurements were conducted on a Sierra Sensors MASS-1 instrument.
In the antigen-capture format, the MASS-1 high-density amine sensor surface was derivatized with a goat anti-mouse IgG2a polyclonal antibody (Southern Biotech). Soluble heterodimeric CD3 protein was captured and the respective antibodies were injected over the captured antigen.
Kinetic association (kₐ) and dissociation (kd) rate constants were determined by processing and fitting the data to a 1:1 binding model using MASS-1 AnalyserR2 curve fitting software. Binding dissociation equilibrium constants (KD) and dissociative half-lives (t_{1/2}) were calculated from the kinetic rate constants as: KD (M)=kd/kₐ; and t_{1/2} (min)=(ln 2/(60*kd).

[3] = target: T3, human PSMA on PSMA-expressing cells (human, UniProt Q04609 1-750); assay: FACS on B16F10.9/PSMA cells
T3 construct: Cell line is named under assay or readout in each row; also called B16F10.9/hPSMA; B16F10.9/PSMA
Description: as §1, §2

[4] = target: T2, human CD3 on CD3-expressing cells …; assay: cell-based or functional assay
[5] = target: T3, human PSMA on PSMA-expressing cells; assay: cell-based or functional assay
[6] = target: T4, human CD3 expressed on cells (Jurkat cells; human T-cells of PBMC) (human, UniProt P09693 23-182; P20963 22-164); assay: cell-based or functional assay
[7] = target: cynomolgus monkey CD3 expressed on monkey T-cells (PBMCs) (cynomolgus monkey, UniProt Q95LI5 22-198; Q95LI8 22-171); assay: cell-based or functional assay
[8] = target: T4, human CD3 expressed on cells (Jurkat …); assay: FACS titration on Jurkat cells (CD3+ human T-cell line)
Description: FACS data was acquired using the following protocol: Cells at 2×10⁵ per well were incubated with serially diluted antibodies for 30 min on ice. Post incubation, cells were washed and secondary antibody was added and incubated for an additional 30 minutes. After incubation, cells were washed, re-suspended in cold PBS containing 1% BSA and analyzed by flow cytometry with viable Jurkat cells gated by side and forward scatters. The EC₅₀s for cell binding titration were determined using Prism software with values calculated using a 4-parameter non-linear regression analysis.

[9] = target: T4, human CD3 expressed on cells (Jurkat …); assay: cell-based or functional assay; remark: listed apart in the source

Chain of cynomolgus monkey CD3 expressed on monkey T-cells (PBMCs) (Q95LI5 22-198, chain 1 of 2): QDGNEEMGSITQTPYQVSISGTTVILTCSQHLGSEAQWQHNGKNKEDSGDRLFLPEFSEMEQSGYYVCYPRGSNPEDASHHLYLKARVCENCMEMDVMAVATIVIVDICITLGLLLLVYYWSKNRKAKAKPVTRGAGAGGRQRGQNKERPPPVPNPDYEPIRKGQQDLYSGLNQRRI
Chain of cynomolgus monkey CD3 expressed on monkey T-cells (PBMCs) (Q95LI8 22-171, chain 2 of 2): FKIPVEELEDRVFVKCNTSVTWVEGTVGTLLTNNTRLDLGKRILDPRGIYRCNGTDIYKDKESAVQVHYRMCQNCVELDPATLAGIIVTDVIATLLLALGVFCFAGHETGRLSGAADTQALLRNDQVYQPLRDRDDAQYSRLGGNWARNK
T3 sequence (Q04609 whole entry): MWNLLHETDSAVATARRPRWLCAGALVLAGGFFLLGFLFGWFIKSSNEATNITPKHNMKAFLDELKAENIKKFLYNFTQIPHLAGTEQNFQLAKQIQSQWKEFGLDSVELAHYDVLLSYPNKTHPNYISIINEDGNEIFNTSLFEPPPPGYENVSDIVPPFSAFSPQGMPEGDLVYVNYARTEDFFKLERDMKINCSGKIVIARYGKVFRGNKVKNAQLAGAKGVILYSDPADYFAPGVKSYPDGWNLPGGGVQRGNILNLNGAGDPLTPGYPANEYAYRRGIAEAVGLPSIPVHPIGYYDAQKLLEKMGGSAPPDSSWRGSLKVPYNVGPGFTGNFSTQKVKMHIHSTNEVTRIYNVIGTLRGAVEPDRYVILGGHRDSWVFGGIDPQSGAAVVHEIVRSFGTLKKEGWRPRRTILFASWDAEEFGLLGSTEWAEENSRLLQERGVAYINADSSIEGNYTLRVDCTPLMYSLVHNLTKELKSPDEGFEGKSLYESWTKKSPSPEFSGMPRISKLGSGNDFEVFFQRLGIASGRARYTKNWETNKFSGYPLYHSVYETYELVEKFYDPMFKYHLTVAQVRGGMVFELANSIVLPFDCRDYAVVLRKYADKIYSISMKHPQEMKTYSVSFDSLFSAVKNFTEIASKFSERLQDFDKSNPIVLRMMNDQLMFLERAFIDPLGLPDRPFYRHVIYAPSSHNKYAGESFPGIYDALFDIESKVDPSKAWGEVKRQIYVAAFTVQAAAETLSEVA
T4 sequence (chain, as listed by the source, chain 1 of 4): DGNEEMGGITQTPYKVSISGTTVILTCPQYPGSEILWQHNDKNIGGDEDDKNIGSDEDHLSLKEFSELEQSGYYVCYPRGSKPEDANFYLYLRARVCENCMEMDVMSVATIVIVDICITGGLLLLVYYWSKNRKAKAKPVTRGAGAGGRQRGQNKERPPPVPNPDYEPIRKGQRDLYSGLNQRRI
T4 sequence (chain, as listed by the source, chain 2 of 4): as the sequence (Q95LI8 22-171, chain 2 of 2) above, with V5I, K15N, V20I, T32S, N33D, N34I, A64T, N74S, L83V, R141H counted along it
T4 sequence (P09693 23-182, chain 3 of 4): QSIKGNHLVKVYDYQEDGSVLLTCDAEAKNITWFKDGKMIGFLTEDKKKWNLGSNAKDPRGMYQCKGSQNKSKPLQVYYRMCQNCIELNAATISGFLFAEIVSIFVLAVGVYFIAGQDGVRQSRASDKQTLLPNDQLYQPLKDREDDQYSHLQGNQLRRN
T4 sequence (P20963 22-164, chain 4 of 4): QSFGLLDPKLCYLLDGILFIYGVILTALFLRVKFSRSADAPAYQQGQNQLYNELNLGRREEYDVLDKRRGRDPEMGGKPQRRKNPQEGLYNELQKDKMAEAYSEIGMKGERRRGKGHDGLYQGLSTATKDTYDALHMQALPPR
T2 sequence (P07766 23-207 limits assumed, chain 1 of 2): as the sequence (chain, as listed by the source, chain 1 of 4) above
T2 sequence (P04234 22-171 limits assumed, chain 2 of 2): as the sequence (Q95LI8 22-171, chain 2 of 2) above, with V5I, K15N, V20I, T32S, N33D, N34I, A64T, N74S, L83V, R141H counted along it

| Binder | EC50 [M] hPBMC Proliferation [6] | EC50 [M] mfPBMC Proliferation [7] | EC50 [8] | U937 Cytotoxicity Human T-cells [9] | other results |
| --- | --- | --- | --- | --- | --- |
| B1 |  |  |  |  | EC50 [1]: 274 nM; Kd [2]: 113 nM; T½ [2]: 2.3 min; koff [2]: 0.00495 s⁻¹; kon [2]: 43800 M⁻¹ s⁻¹; EC50 [3]: 1.43 nM; T cell activation EC50 [4]: 0.00112 nM; TrampC2.PSMA Cell depletion EC50 [5]: 0.0035 nM |
| B2 |  |  |  |  | EC50 [1]: 106 nM; Kd [2]: 77.5 nM; T½ [2]: 4.9 min; koff [2]: 0.00234 s⁻¹; kon [2]: 30200 M⁻¹ s⁻¹; EC50 [3]: 1.14 nM |
| B3 |  |  |  |  | EC50 [1]: 60.7 nM; Kd [2]: 115 nM; T½ [2]: 2.3 min; koff [2]: 0.00509 s⁻¹; kon [2]: 44300 M⁻¹ s⁻¹; EC50 [3]: 1.35 nM |
| B4 | 5.04e-12 M | 5.93e-13 M | 0.685 nM | 0.341 pM |  |
| B5 | 4.62e-12 M | 2.01e-12 M | 3.53 nM | 15.4 pM |  |
| B6 |  | 8.33e-13 M |  |  |  |
| B7 | 6.35e-12 M | 2.74e-12 M |  |  |  |
| B8 | 6.08e-12 M | 7.92e-13 M | 1.23 nM | 1.83 pM |  |
| B9 | 4.42e-12 M | 1.47e-12 M | 0.664 nM | 0.689 pM |  |
| B10 | 3.44e-12 M | 3.13e-13 M | 0.762 nM | 4.03 pM |  |
| B11 |  | 2.81e-09 M |  |  |  |
| B12 | 3.27e-13 M | 4.06e-10 M | 0.88 nM |  |  |
